Molecular target: T1, Y-box binding protein 1 (Yb1), endogenous mouse (mouse (endogenous in primary mouse …, UniProt P62960 1-322))
T1 construct: also called Msy1; source: endogenous, primary mouse motoneuron lysate; endogenous, NSC-34 lysate
Experiment: co-IP; Yb1 (sc-101198) or γ-H2AX (clone JBW301) immunoprecipitated on protein A or G Dynabeads from whole lysates of NSC-34 cells, 0 Gy or 9 Gy; IP lysis buffer (50 mM Tris-HCl pH 7.4, 140 mM NaCl, 1% Triton X-100) with 1 U Benzonase, overnight at 4°C; western blot
Conditions: partners not purified

T1 sequence (P62960 whole entry): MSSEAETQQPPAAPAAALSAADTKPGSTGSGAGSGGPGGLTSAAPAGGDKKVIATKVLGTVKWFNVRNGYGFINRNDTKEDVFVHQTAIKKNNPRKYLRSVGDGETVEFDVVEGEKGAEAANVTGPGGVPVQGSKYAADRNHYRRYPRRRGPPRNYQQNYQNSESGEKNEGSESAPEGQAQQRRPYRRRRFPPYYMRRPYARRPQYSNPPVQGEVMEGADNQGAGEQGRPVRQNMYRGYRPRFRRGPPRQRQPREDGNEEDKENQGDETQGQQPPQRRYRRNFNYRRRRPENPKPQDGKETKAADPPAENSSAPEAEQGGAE

B1: hnRNP R-FL (full-length hnRNP R isoform), endogenous (natural protein, mouse (endogenous in NSC-34), UniProt Q8VHM5 1-632, looked up)
chain: MANQVNGNAVQLKEEEEPMDTSSVTHTEHYKTLIEAGLPQKVAERLDEIFQTGLVAYVDLDERAIDALREFNEEGALSVLQQFKESDLSHVQNKSAFLCGVMKTYRQREKQGSKVQESTKGPDEAKIKALLERTGYTLDVTTGQRKYGGPPPDSVYSGVQPGIGTEVFVGKIPRDLYEDELVPLFEKAGPIWDLRLMMDPLSGQNRGYAFITFCGKEAAQEAVKLCDSYEIRPGKHLGVCISVANNRLFVGSIPKNKTKENILEEFSKVTEGLVDVILYHQPDDKKKNRGFCFLEYEDHKSAAQARRRLMSGKVKVWGNVVTVEWADPVEEPDPEVMAKVKVLFVRNLATTVTEEILEKSFSEFGKLERVKKLKDYAFVHFEDRGAAVKAMDEMNGKEIEGEEIEIVLAKPPDKKRKERQAARQASRSTAYEDYYYHPPPRMPPPMRGRGRGGRGGYGYPPDYYGYEDYYDDYYGYDYHDYRGGYEDPYYGYDDGYAVRGRGGGRGGRGAPPPPRGRGAPPPRGRAGYSQRGAPLGPPRGSRGGRGGPAQQQRGRGSRGARGNRGGNVGGKRKADGYNQPDSKRRQTNNQQNWGSQPIAQQPLQQGGDYSGNYGYNNDNQEFYQDTYGQQWK
notes: hnRNP R, mouse, full-length 632-amino acid protein encoded by transcript variant 1, translated from the AUG in exon 2; source: endogenous, NSC-34 lysate
fold preference of co-precipitation with Yb1 over hnRNP R-ΔN: 1.7 fold

Source: PMC8643683, “Loss of full-length hnRNP R isoform impairs DNA damage response in motoneurons by inhibiting Yb1 recruitment to chromatin” (Nucleic Acids Research, 2021)
